Data from patent publication US20230303708A1.

Molecular target: hBCMA-41BB-CD3 CAR (CAR-PMC750)
Assay: FACS of CAR-T cells stained with biotinylated goat anti-mouse F(ab)'2 and PE-streptavidin, day 9 of expansion

Sequence of hBCMA-41BB-CD3 CAR (CAR-PMC750) (chain, as listed by the source): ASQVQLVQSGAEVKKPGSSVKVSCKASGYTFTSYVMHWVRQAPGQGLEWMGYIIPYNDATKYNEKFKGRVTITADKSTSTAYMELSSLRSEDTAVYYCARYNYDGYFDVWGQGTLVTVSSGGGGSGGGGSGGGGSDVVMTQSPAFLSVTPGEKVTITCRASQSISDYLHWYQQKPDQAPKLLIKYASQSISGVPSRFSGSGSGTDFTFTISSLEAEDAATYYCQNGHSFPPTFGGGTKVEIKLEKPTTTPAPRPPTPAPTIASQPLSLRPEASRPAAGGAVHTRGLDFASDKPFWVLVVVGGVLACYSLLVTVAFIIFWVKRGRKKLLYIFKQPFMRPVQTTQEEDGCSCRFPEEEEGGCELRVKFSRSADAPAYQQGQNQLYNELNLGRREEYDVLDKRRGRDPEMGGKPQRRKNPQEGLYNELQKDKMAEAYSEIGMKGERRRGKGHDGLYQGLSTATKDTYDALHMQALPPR

Q: With “biotin-conjugated goat anti-mouse F(ab)'2 (antibody)” as the substance, how does the percent CAR-positive cells read?
A: > 70%
